± gives the uncertainty stated by the source.
Test: self-splicing fitness, log relative to wild type (ln ratio); higher = more splicing; Tetrahymena group I intron in knt gene, E. coli kanamycin selection, DiMSum; sequences stand for … in CUCUCU…GGAGGGAAAAGUUAUCAGGCAUGCACCUGGUAGCUAGUCUUUAAACCAAUAGAUUGCAUCGGUUUAAAAGGCAAGACCGUCAAAUUGCGGGAAAGGGGUCAACAGCCGUUCAGUACCAAGUCUCAGGGGAAACUUUGAGAUGGCCUUGCAAAGGGUAUGGUAAUAAGCUGACGGACAUGGUCCUAACCACGCAGCCAAGUCCUAAGUCAACAGAUCUUCUGUUGAUAUGGAUGCAGUUCACAGACUAAAUGUCGGUCGGGGAAGAUGUAUUCUUCUCAUAAGAUAUAGUCGGACCUCUCCUUAAUGGGAGCUAGCGGAUGAAGUGAUGCAACACUGGAGCCGCUGGGAACUAAUUUGUAUGCGAAAGUAUAUUGAUUAGUUUUGGAGUACUCGUGGUCG
How it was run: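 Pooled colonies went to amplicon sequencing on an Illumina HiSeq 2500 after six replicate transformations. The plates were LB agar with 100 μg/mL carbenicillin, 50 μM IPTG and 0.2% rhamnose, with or without 25 μg/mL kanamycin, incubated overnight at 37°C or 30°C. The E. coli BL21(DE3) library had all eight P1ex-region intron nucleotides randomised, the intron placed in the knt kanamycin-resistance gene on pET-22b(+). DiMSum fitness is the error-weighted combination of replicate fold changes, kanamycin against none, normalised to wild type.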

**Q.** Which “self-splicing fitness (ln)” value (30 °C) does the source give for GUAGAGCAAUAUUACGCCCG here?
**A.** -2.15 ± 0.3

**Q.** And the “self-splicing fitness (ln)” value (37 °C)?
**A.** -1.85 ± 0.3

**Q.** With GGUUAGCAAUAUUACGUCGG as the sequence, how does the “self-splicing fitness (ln)” value (30 °C) read?
**A.** -2.3 ± 0.36

**Q.** And the “self-splicing fitness (ln)” value (37 °C)?
**A.** -1.7 ± 0.35

**Q.** With UCGUAGCAAUAUUACGUGCG as the sequence, how does the “self-splicing fitness (ln)” value (30 °C) read?
**A.** -2.44 ± 0.14

**Q.** What about the “self-splicing fitness (ln)” value (37 °C) of the same sequence?
**A.** -0.347 ± 0.14

**Q.** What does the source list for UCUCAGCAAUAUUACGGCGG?
**A.** self-splicing fitness (ln) (30 °C): -2.46 ± 0.16; self-splicing fitness (ln) (37 °C): -1.01 ± 0.18

**Q.** Which “self-splicing fitness (ln)” value (30 °C) does the source give for AGGCAGCAAUAUUACGCGAU here?
**A.** -4.3 ± 0.42

**Q.** And the “self-splicing fitness (ln)” value (37 °C)?
**A.** -1.93 ± 0.21

**Q.** With UAAGAGCAAUAUUACGAAAA as the sequence, how does the “self-splicing fitness (ln)” value (37 °C) read?
**A.** -2.26 ± 0.38

**Q.** For UAACAGCAAUAUUACGUGCA, which “self-splicing fitness (ln)” value (30 °C) is on record?
**A.** -0.792 ± 0.063

**Q.** What about the “self-splicing fitness (ln)” value (37 °C) of the same sequence?
**A.** -0.445 ± 0.098

**Q.** Which “self-splicing fitness (ln)” value (30 °C) does the source give for AGCCAGCAAUAUUACGCAAA here?
**A.** -2.91 ± 0.34

**Q.** And the “self-splicing fitness (ln)” value (37 °C)?
**A.** -2.36 ± 0.2

**Q.** Which results are given for CUACAGCAAUAUUACGUGAC?
**A.** self-splicing fitness (ln) (30 °C): -1.02 ± 0.09; self-splicing fitness (ln) (37 °C): -0.853 ± 0.14

**Q.** With CUCUAGCAAUAUUACGACGG as the sequence, how does the “self-splicing fitness (ln)” value (30 °C) read?
**A.** -2.32 ± 0.18

**Q.** What about the “self-splicing fitness (ln)” value (37 °C) of the same sequence?
**A.** -1.98 ± 0.29

**Q.** Which “self-splicing fitness (ln)” value (30 °C) does the source give for UUCCAGCAAUAUUACGAGGA here?
**A.** -1.83 ± 0.19

**Q.** And the “self-splicing fitness (ln)” value (37 °C)?
**A.** -0.64 ± 0.22

**Q.** With AAUAAGCAAUAUUACGAAUG as the sequence, how does the “self-splicing fitness (ln)” value (30 °C) read?
**A.** -1.37 ± 0.13

**Q.** What about the “self-splicing fitness (ln)” value (37 °C) of the same sequence?
**A.** -0.759 ± 0.17

**Q.** With UCAGAGCAAUAUUACGCGUA as the sequence, how does the “self-splicing fitness (ln)” value (30 °C) read?
**A.** -2.57 ± 0.32

**Q.** What about the “self-splicing fitness (ln)” value (37 °C) of the same sequence?
**A.** -0.569 ± 0.16

**Q.** With CCACAGCAAUAUUACGGGCC as the sequence, how does the “self-splicing fitness (ln)” value (30 °C) read?
**A.** -4.14 ± 0.25

**Q.** What about the “self-splicing fitness (ln)” value (37 °C) of the same sequence?
**A.** -2.5 ± 0.18

**Q.** Which “self-splicing fitness (ln)” value (37 °C) does the source give for CUUGAGCAAUAUUACGAUAU here?
**A.** -1.76 ± 0.39

**Q.** For CCUCAGCAAUAUUACGUAAG, which “self-splicing fitness (ln)” value (30 °C) is on record?
**A.** -0.219 ± 0.059

**Q.** What about the “self-splicing fitness (ln)” value (37 °C) of the same sequence?
**A.** 0.292 ± 0.082

**Q.** With CCCCAGCAAUAUUACGAGCU as the sequence, how does the “self-splicing fitness (ln)” value (30 °C) read?
**A.** -3.85 ± 0.19

**Q.** What about the “self-splicing fitness (ln)” value (37 °C) of the same sequence?
**A.** -2.85 ± 0.2

**Q.** Which results are given for UCCGAGCAAUAUUACGUCUC?
**A.** self-splicing fitness (ln) (30 °C): -2.26 ± 0.21; self-splicing fitness (ln) (37 °C): -2.99 ± 0.43

**Q.** Which “self-splicing fitness (ln)” value (30 °C) does the source give for AGCUAGCAAUAUUACGGAGA here?
**A.** -2.24 ± 0.22

**Q.** And the “self-splicing fitness (ln)” value (37 °C)?
**A.** -3.14 ± 0.37

**Q.** With CUAUAGCAAUAUUACGCGUG as the sequence, how does the “self-splicing fitness (ln)” value (30 °C) read?
**A.** -1.27 ± 0.1

**Q.** And the “self-splicing fitness (ln)” value (37 °C)?
**A.** -0.122 ± 0.12

**Q.** Which “self-splicing fitness (ln)” value (37 °C) does the source give for AAACAGCAAUAUUACGAGAA here?
**A.** -1.95 ± 0.17

**Q.** What does the source list for GUUAAGCAAUAUUACGUCUA?
**A.** self-splicing fitness (ln) (30 °C): -0.524 ± 0.1; self-splicing fitness (ln) (37 °C): -0.261 ± 0.099

**Q.** Which results are given for GUGGAGCAAUAUUACGGGUG?
**A.** self-splicing fitness (ln) (30 °C): -3.8 ± 0.37; self-splicing fitness (ln) (37 °C): -2.9 ± 0.47

**Q.** Which results are given for CGUUAGCAAUAUUACGCUCA?
**A.** self-splicing fitness (ln) (30 °C): -0.383 ± 0.14; self-splicing fitness (ln) (37 °C): -0.384 ± 0.15

**Q.** Which “self-splicing fitness (ln)” value (37 °C) does the source give for AGGGAGCAAUAUUACGGUAU here?
**A.** -0.384 ± 0.39

**Q.** What does the source list for GGACAGCAAUAUUACGGAAG?
**A.** self-splicing fitness (ln) (30 °C): -2.62 ± 0.13; self-splicing fitness (ln) (37 °C): -1.36 ± 0.14

**Q.** For CAAGAGCAAUAUUACGCACC, which “self-splicing fitness (ln)” value (30 °C) is on record?
**A.** -3.75 ± 0.35

**Q.** Which “self-splicing fitness (ln)” value (37 °C) does the source give for UGUUAGCAAUAUUACGCAGC here?
**A.** -2.47 ± 0.38

**Q.** With GUGGAGCAAUAUUACGUAGG as the sequence, how does the “self-splicing fitness (ln)” value (30 °C) read?
**A.** -3.17 ± 0.29

**Q.** And the “self-splicing fitness (ln)” value (37 °C)?
**A.** -0.82 ± 0.24

**Q.** Which results are given for UGAUAGCAAUAUUACGAUGG?
**A.** self-splicing fitness (ln) (30 °C): -1.56 ± 0.11; self-splicing fitness (ln) (37 °C): -1.72 ± 0.16

**Q.** With ACAUAGCAAUAUUACGCACU as the sequence, how does the “self-splicing fitness (ln)” value (30 °C) read?
**A.** -0.38 ± 0.083

**Q.** What about the “self-splicing fitness (ln)” value (37 °C) of the same sequence?
**A.** 0.676 ± 0.1

**Q.** With GCUAAGCAAUAUUACGGAGU as the sequence, how does the “self-splicing fitness (ln)” value (30 °C) read?
**A.** -4.27 ± 0.27

**Q.** And the “self-splicing fitness (ln)” value (37 °C)?
**A.** -3.14 ± 0.26

**Q.** What does the source list for AAACAGCAAUAUUACGGCAC?
**A.** self-splicing fitness (ln) (30 °C): -1.72 ± 0.083; self-splicing fitness (ln) (37 °C): -0.057 ± 0.1

**Q.** What does the source list for GCCUAGCAAUAUUACGUGCU?
**A.** self-splicing fitness (ln) (30 °C): -2.06 ± 0.074; self-splicing fitness (ln) (37 °C): -1.17 ± 0.084

**Q.** What does the source list for UACCAGCAAUAUUACGGGCA?
**A.** self-splicing fitness (ln) (30 °C): -0.875 ± 0.054; self-splicing fitness (ln) (37 °C): 0.469 ± 0.087

**Q.** For GACUAGCAAUAUUACGAAGG, which “self-splicing fitness (ln)” value (30 °C) is on record?
**A.** -2.64 ± 0.17

**Q.** What about the “self-splicing fitness (ln)” value (37 °C) of the same sequence?
**A.** -1.87 ± 0.18

**Q.** With UUCUAGCAAUAUUACGAGAG as the sequence, how does the “self-splicing fitness (ln)” value (30 °C) read?
**A.** -2.3 ± 0.22

**Q.** What about the “self-splicing fitness (ln)” value (37 °C) of the same sequence?
**A.** -2.4 ± 0.29

**Q.** For UAGGAGCAAUAUUACGACGG, which “self-splicing fitness (ln)” value (30 °C) is on record?
**A.** -2.88 ± 0.13

**Q.** What about the “self-splicing fitness (ln)” value (37 °C) of the same sequence?
**A.** -0.471 ± 0.12

**Q.** For AUCAAGCAAUAUUACGUUCG, which “self-splicing fitness (ln)” value (30 °C) is on record?
**A.** -1.5 ± 0.086

**Q.** What about the “self-splicing fitness (ln)” value (37 °C) of the same sequence?
**A.** -0.132 ± 0.091

**Q.** For ACUGAGCAAUAUUACGUAUC, which “self-splicing fitness (ln)” value (37 °C) is on record?
**A.** -2.99 ± 0.44

Reference: the supplement of paper PMC7877785
